Test [1] has as its target HLA-A*02:12. Briefly: IEDB peptide-MHC binding, purified MHC/direct/fluorescence; filed as Kd, often an IC50 or EC50 that approximates it; ≥ and ≤ were set here for values at or beyond the usual limits of such assays.
The target of test [2] is HLA-B*39:01. The description is as above.
Test [3] addresses HLA-A*02:03. Described as above.
In test [4] the target is HLA-A*26:01. The description is as above.
The target in test [5] is HLA-A*02:01. The description is as above.
In test [6] the target is HLA-A*02:19. The description is as above.
For test [7], the target named is HLA-A*69:01. The description is as above.
For test [8], the target named is HLA-A*23:01. The description is as above. The note with it: source organism: Listeria monocytogenes serotype 4b str. H7858.
For test [9], the target named is HLA-A*02:06. Described as above.
Test [10] concerns the target HLA-B*51:01. Described as above.
Test [11] addresses HLA-B*57:01. The test is described as above.
For test [12], the target named is HLA-A*03:01. Described as above.
Test [13] deals with HLA-A*29:02. The test is described as above.
Test [14] deals with HLA-B*18:01. Described as above.
Test [15] has as its target HLA-B*27:03. Described as above.
Test [16] addresses HLA-A*66:01. Briefly: IEDB peptide-MHC binding, purified MHC/competitive/fluorescence; filed as Kd, often an IC50 or EC50 that approximates it; ≥ and ≤ were set here for values at or beyond the usual limits of such assays. The note with it: source organism: Listeria monocytogenes J0161.
Test [17] concerns the target HLA-B*14:02. The test is described as above. The note with it: source organism: Listeria monocytogenes J0161.
Test [18] has as its target HLA-B*07:02. The description is as above. The note with it: source organism: Listeria monocytogenes J0161.
Test [19] addresses HLA-B*44:02. The test is described as above. The note with it: source organism: Listeria monocytogenes J0161.
In test [20] the target is HLA-A*24:03. The test is described as above. Particulars: source organism: Listeria monocytogenes J0161.
Test [21] concerns the target HLA-B*40:01. The description is as above. The note with it: source organism: Listeria monocytogenes J0161.
Test [22] has as its target HLA-B*58:01. The test is described as above. The note with it: source organism: Listeria monocytogenes J0161.
Test [23] deals with HLA-B*27:05. Described as above. Particulars: source organism: Listeria monocytogenes J0161.
Test [24] has as its target HLA-A*30:01. The test is described as above. The note with it: source organism: Listeria monocytogenes J0161.
Test [25] concerns the target HLA-B*08:01. Described as above. The note with it: source organism: Listeria monocytogenes J0161.
The target of test [26] is HLA-B*53:01. The test is described as above. The note with it: source organism: Listeria monocytogenes J0161.
For test [27], the target named is HLA-A*01:01. The description is as above. Particulars: source organism: Listeria monocytogenes J0161.
Test [28] addresses HLA-A*11:01. Described as above. The note with it: source organism: Listeria monocytogenes J0161.
The target in test [29] is HLA-A*02:11. Briefly: IEDB peptide-MHC binding, purified MHC/direct/fluorescence; filed as Kd, often an IC50 or EC50 that approximates it; ≥ and ≤ were set here for values at or beyond the usual limits of such assays.
The target in test [30] is HLA-A*02:16. The test is described as above.
The target in test [31] is HLA-A*02:50. The test can be described thus: IEDB peptide-MHC binding, purified MHC/competitive/fluorescence; filed as Kd, often an IC50 or EC50 that approximates it; ≥ and ≤ were set here for values at or beyond the usual limits of such assays. The note with it: source organism: Vibrio vulnificus YJ016.
Test [32] has as its target HLA-B*15:17. The test can be described thus: IEDB peptide-MHC binding, purified MHC/direct/fluorescence; filed as Kd, often an IC50 or EC50 that approximates it; ≥ and ≤ were set here for values at or beyond the usual limits of such assays. The note with it: source organism: Escherichia coli O157:H7 str. EC869.
Test [33] has as its target HLA-B*46:01. The test is described as above. Particulars: source organism: Escherichia coli O157:H7 str. EC869.
In test [34] the target is HLA-A*24:03. Described as above. The note with it: source organism: Escherichia coli O157:H7 str. EC869.
Where [35] appears, read: source organism: Listeria monocytogenes serotype 4b str. H7858.
The mark [36] stands for this setting: source organism: Vibrio vulnificus CMCP6.
Where [37] appears, read: source organism: Vibrio vulnificus.
Setting [38] is: source organism: Escherichia coli O157:H7 str. EC869.

In general, Kd refers to a measure of binding affinity in units of concentration. On to AALEGLSGF, for which the equilibrium dissociation constant (Kd) in [1] (setting [35]) is ≥ 20 µM; in test [2] (setting [35]), ≥ 20 µM; in [3] (setting [35]) it was ≥ 20 µM; in [4] (setting [35]), ≥ 20 µM; in test [5] (setting [35]) it was 1.9 µM; in test [6] (setting [35]), ≥ 20 µM. Also, the Kd is ≥ 20 µM in test [7] (setting [35]); 0.622 µM in test [8]; 1.92 µM in test [9] (setting [35]); ≥ 20 µM in test [10] (setting [35]); ≥ 20 µM in test [11] (setting [35]); ≥ 20 µM in test [12] (setting [35]). Moreover, the dissociation constant (Kd) in test [13] (setting [35]) was 0.542 µM; in test [14] (setting [35]), ≥ 20 µM; in [15] (setting [35]) it was ≥ 20 µM; in [16] it was ≥ 5 µM; in [17], ≥ 5 µM; in test [18], ≥ 5 µM. For the same sequence, the dissociation constant (Kd) is ≥ 5 µM in test [19]; 0.771 µM in [20]; ≥ 5 µM in test [21]; ≥ 5 µM in [22]; ≥ 5 µM in [23]; ≥ 5 µM in test [24]. For the same sequence, the Kd in [25], in [26], in test [27] and in test [28] was ≥ 5 µM throughout.
For the sequence QLAFTYCQV, the dissociation constant Kd in test [29] (setting [36]) is 0.002 µM; in test [5] (setting [37]), 0.567 µM; in test [7] (setting [37]), 0.153 µM; in test [30] (setting [36]), 0.021 µM; in test [31] it was ≤ 0.0001 µM.
As to SQFNHWFGE, the dissociation constant Kd in test [1] (setting [38]), in test [32], in test [29] (setting [38]), in test [2] (setting [38]), in [33] and in [3] (setting [38]) was ≥ 20 µM throughout. In addition, the Kd in test [4] (setting [38]) was ≥ 20 µM; in test [5] (setting [38]) it was ≥ 20 µM; in test [6] (setting [38]), ≥ 20 µM; in test [34], ≥ 20 µM; in test [9] (setting [38]) it was 0.086 µM; in [10] (setting [38]), ≥ 20 µM. In addition, the Kd in test [30] (setting [38]), in test [11] (setting [38]), in test [12] (setting [38]), in test [13] (setting [38]), in test [14] (setting [38]) and in test [15] (setting [38]) was ≥ 20 µM in each case.

These data come from the Immune Epitope Database (IEDB).
